Assay results taken from patent US7462691.

Biological target: recombinant secreted soluble PSCA with C-terminal 6XHis and MYC tag (human)
Test: SPR (BIAcore), recombinant PSCA immobilised at low density (30 RU), mAb in solution

Chain of recombinant secreted soluble PSCA with C-terminal 6XHis and MYC tag (human) (chain, as listed by the source): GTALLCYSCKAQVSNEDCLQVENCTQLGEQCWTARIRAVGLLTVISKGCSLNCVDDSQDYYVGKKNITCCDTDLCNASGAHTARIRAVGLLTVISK

Q: For anti-PSCA monoclonal antibody 1G8, which Kd is on record?
A: Its Kd is 1 nM.

Q: What about the kon of the same substance?
A: Its kon is 168000 M⁻¹ s⁻¹.
